6 molecules from publication PMC7138851, “Quantitative assessment of the determinant structural differences between redox-active and inactive glutaredoxins” (Nature Communications, 2020) can be followed below.

“And” between values parts separate entries of the source, which are not always exact repeats. Equal values may be shown once.

Series [1] has as its target Cys108 (UniProt position 108, FSATGCPYSKK). Nature of the series: chemical modification. Conditions: 23 °C (alkylation step), 25 °C (HEDS activity read-out), 100 mM KCl in a constant-ionic-strength three-buffer system, the ionic strength value is not stated, 50 mM potassium acetate, 50 mM MES, 100 mM Tris, Free enzyme, freshly reduced with a 20-fold molar excess of NaBH4, 6 µM protein.

A further series has as its target T1, ScGrx7 (Saccharomyces cerevisiae, UniProt P38068).
T1 construct: gene GRX7; E. coli XL1-Blue, pQE30; N-terminal MRGS(H)6 tag
T1 sequence (P38068 33-203): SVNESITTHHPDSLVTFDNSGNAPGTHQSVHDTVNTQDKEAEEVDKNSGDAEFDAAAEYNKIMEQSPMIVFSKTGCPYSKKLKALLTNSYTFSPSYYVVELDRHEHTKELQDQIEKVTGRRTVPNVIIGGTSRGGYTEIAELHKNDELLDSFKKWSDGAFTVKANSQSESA
Also noted: Disulfide oxidoreductase assay, steady-state kinetics, coupled NADPH consumption at 340 nm, pH 8.0, 25 °C. Conditions: apparent Km at highest fixed GSH concentration; substrate; read-out: Km app(HEDS). How it is done:
Steady-state kinetics of wild-type and mutant ScGrx7 and HsGrx5^C122S in the GSSCys and [compound left out] assays were determined spectrophotometrically by monitoring the consumption of NADPH at 340 nm and 25 °C using a thermostated Jasco V-650 UV/vis spectrophotometer[11],[19],[25]. Fresh stock solutions of NADPH, GSH, GR, and GSSCys or [compound left out] were prepared in assay buffer containing 0.1 M Tris/HCl, 1 mM EDTA, pH 8.0 before each experiment. Both assays were performed with 0.1 mM NADPH and 1 U/ml ScGR. […] NADPH, GSH, and GR were mixed in assay buffer before Grx was added and a baseline was recorded for 30 s. […] The absorbance of a reference cuvette containing all components but no Grx was measured in parallel and subtracted from the obtained Grx activity. […] NADPH, GSH, and [compound left out] were preincubated in assay buffer for 2 min before GR was added and a baseline was recorded for 30 s. […] Kinetic data were analyzed in Excel and SigmaPlot 13 by nonlinear and linear regression according to Michaelis–Menten, Lineweaver–Burk, Eadie–Hofstee, and Hanes theory[11],[19],[25].

Series [2] addresses Cys108 (UniProt position 108, FSKTGCPYSKK). The experiment in a line: chemical modification. Conditions: 23 °C, 100 mM KCl in a constant-ionic-strength three-buffer system (value not stated), 50 mM potassium acetate, 50 mM MES, 100 mM Tris, Freshly reduced (NaBH4) free enzyme, no glutathione bound.
The target of series [3] is Cys108 (UniProt position 108, FSETGCPYSKK). The experiment in a line: chemical modification. Conditions: 23 °C, 100 mM KCl in a constant-ionic-strength three-buffer system (value not stated), 50 mM potassium acetate, 50 mM MES, 100 mM Tris, Freshly reduced (NaBH4) free enzyme, no glutathione bound.
Another series addresses T2, HsGrx5 (Homo sapiens, UniProt Q86SX6, C122S).
T2 construct: gene GLRX5; E. coli XL1-Blue, pQE30; N-terminal MRGS(H)6 tag; C122S in all constructs
T2 sequence (Q86SX6 32-157 C122S): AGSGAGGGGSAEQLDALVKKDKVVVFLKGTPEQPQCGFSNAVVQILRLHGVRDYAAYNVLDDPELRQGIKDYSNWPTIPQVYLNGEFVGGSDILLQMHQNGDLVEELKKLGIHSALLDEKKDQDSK
Nature of the series: UV/vis absorbance of purified protein. Conditions: as purified from E. coli; cluster type not determined here. It counts as binding.

Substrate in series [4]: N[C@@H](CCC(=O)N[C@@H](CS)C(=O)NCC(=O)O)C(=O)O
Nature of the series: purified protein, by the assay type. Conditions: pH 8.0; 25.0 °C. Also noted: GSSCys oxidoreductase assay, GR-coupled NADPH consumption at 340 nm, apparent Km from Hanes plots. How it is done: (§1) Steady-state kinetics of wild-type and mutant ScGrx7 and HsGrx5^C122S in the GSSCys and [compound left out] assays were determined spectrophotometrically by monitoring the consumption of NADPH at 340 nm and 25 °C using a thermostated Jasco V-650 UV/vis spectrophotometer[11],[19],[25]. Fresh stock solutions of NADPH, GSH, GR, and GSSCys or [compound left out] were prepared in assay buffer containing 0.1 M Tris/HCl, 1 mM EDTA, pH 8.0 before each experiment. Both assays were performed with 0.1 mM NADPH and 1 U/ml ScGR. The following final protein concentrations were used for Y110F/H/A (5–150 nM), D144A/K (10 nM), E147A/K (10 nM), R153A/E (25–50 nM), ScGrx7^WP (20 nM), ScGrx7^loop (up to 1.4 µM), ScGrx7^WP+loop (up 2.6 µM), HsGrx5^C122S (up to 15 µM), HsGrx5^RR (up to 12 µM), HsGrx5^loop (up to 1.6 µM), and HsGrx5^RR+loop (up to 4.0 µM). For the GSSCys assays, GSH was varied between 50 µM and 1.5 mM at fixed GSSCys concentrations (25, 50, 100, and 150 µM). NADPH, GSH, and GR were mixed in assay buffer before Grx was added and a baseline was recorded for 30 s. All GSSCys assays were started by the addition of GSSCys. The absorbance of a reference cuvette containing all components but no Grx was measured in parallel and subtracted from the obtained Grx activity. For the [compound left out] assays, GSH was varied between 100 µM and 2.0 mM at fixed concentrations of [compound left out] (0.18, 0.37, 0.55, and 0.74 mM). NADPH, GSH, and [compound left out] were preincubated in assay buffer for 2 min before GR was added and a baseline was recorded for 30 s. All [compound left out] assays were started by the addition of enzyme. Kinetic data were analyzed in Excel and SigmaPlot 13 by nonlinear and linear regression according to Michaelis–Menten, Lineweaver–Burk, Eadie–Hofstee, and Hanes theory[11],[19],[25]. 29 Supplementary Figure 15 Supplementary Figure 15 | GSSCys assay steady-state kinetics of HsGrx5loop and HsGrx5RR+loop . […] The activities of HsGrx5 and HsGrx5RR were similar to the NADPH consumption of negative controls without enzyme and could not be analyzed.

Substrate in series [5]: N[C@@H](CCC(=O)N[C@@H](CSSC[C@H](N)C(=O)O)C(=O)NCC(=O)O)C(=O)O
The experiment in a line: purified protein, by the assay type. Also noted: GSSCys oxidoreductase assay, GR-coupled NADPH consumption at 340 nm, apparent Km from Hanes plots. Conditions: pH 8.0; 25.0 °C. How it is done: as §1

As to “Glutaredoxin 7 (ScGrx7) K105A (Saccharomyces cerevisiae; K105A)”, in the series with Cys108 [1], the pKa (usually the negative logarithm of the acid dissociation constant) is recorded as 4.4 ± 0.1.

Turning to `OCCSSCCO` [HEDS], the Km (commonly the concentration of substrate that gives half-maximal velocity) at ScGrx7 amounted to 820 ± 190 µM.

On to “Glutaredoxin 7 (ScGrx7), wild type (Saccharomyces cerevisiae)”, for which the pKa with Cys108 [2] is 4.3 ± 0.1 and 4.48.

“Glutaredoxin 7 (ScGrx7) K105E (Saccharomyces cerevisiae; K105E)” showed a pKa in the series with Cys108 [3] of 5.0 ± 0.1.

Take `[S]1[Fe][S][Fe]1` [iron–sulfur cluster]: on HsGrx5, the “UV/vis absorbance of purified protein” value is “Freshly purified recombinant wild-type HsGrx5 contained an iron–sulfur cluster”.

B1: HsGrx5 (Homo sapiens; C122S/DEL60-64/P65T/Q66G) (protein)
chain: AGSGAGGGGSAEQLDALVKKDKVVVFLKTGCGFSNAVVQILRLHGVRDYAAYNVLDDPELRQGIKDYSNWPTIPQVYLNGEFVGGSDILLQMHQNGDLVEELKKLGIHSALLDEKKDQDSK
notes: E. coli XL1-Blue, pQE30; N-terminal MRGS(H)6 tag; C122S in all constructs
For B1, in series [4], the kcat – broadly, the number of substrate molecules converted per active site and unit of time at saturation – is 0.18 s⁻¹ and 0.27 s⁻¹; the kcat/Km (usually the turnover number divided by the Michaelis constant) was 3900 M⁻¹ s⁻¹ and 4800 M⁻¹ s⁻¹. The kcat/Km in series [5] was 1500 M⁻¹ s⁻¹ and 1600 M⁻¹ s⁻¹.
